1 molecule from patent US20110171194A1 (TRUSTEES OF COLUMBIA UNIVERSITY IN THE CITY OF NEW YORK, published 2011) can be followed below.

The test deals with T1, Aβ(1-42) (UniProt P05067 672-713).
T1 construct: domain: Aβ(1-42); Residue numbers count on Aβ, not on APP
The test is described as follows: 125I-labeled GST-ABAD truncation binding to immobilized Aβ(1-42).

T1 sequence (P05067 672-713 limits assumed): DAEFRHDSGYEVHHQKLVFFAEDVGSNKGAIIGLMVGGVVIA

B1: GST-ABAD(159-261) (other, UniProt Q99714 159-261, looked up)
chain: FEGQVGQAAYSASKGGIVGMTLPIARDLAPIGIRVMTIAPGLFGTPLLTSLPEKVCNFLASQVPFPSRLGDPAEYAHLVQAIIENPFLNGEVIRLDGAIRMQP
modifications: 125I-labeled
notes: not shown: glutathione S-transferase (GST) tag
Take B1: the binding result is recorded as “no binding”.
